By stoichiometry N is commonly meant the number of molecules, sites or subunits per partner or assembly.

The target in the test is Dyn1_(387kD) (S. cerevisiae) (UniProt P36022). In words: single-molecule GFP fluorescence intensity; GFP-tagged motors on surface-immobilised Cy5 MTs, with ATP or apyrase, 5 min; intensities of GFP spots compared with GST-Dyn1 331kD.

The substance Dyn1_(387kD), P36022 732-4092 showed a stoichiometry N of 2.

These data come from publication PMC3762337.
